Measured values reported in the nanobody polyreactivity screen of Harvey et al. (2022).

Assay: yeast display, Sf9 membrane polyspecificity reagent, FACS + sequencing; frameworks hold sequencing errors
In short: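 After 36–48 hours of galactose induction, yeast (Saccharomyces cerevisiae BJ5465) displaying a synthetic nanobody library were stained at 4 °C for 1 hour with 10% biotinylated, detergent-solubilized Sf9 membrane reagent. Streptavidin microbeads enriched the stained cells before FACS sorting into low and high (top ~1%) gates on anti-HA and streptavidin fluorescence. Each clone's polyreactivity label reflects its gate of origin.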

Sequence | polyreactivity (PSR sort gate)
QVQLVESGGGLVQAGGSLRLSCAASGSIFVWNALGWYRQAPGTERELVAAISYTDGSTYYADSVKGRFTISRDNATNTVYFQMNSLKPEVTAVYYCNAYPASRGPGNPLDDYWGQGTQVTVSS | low polyreactivity
QVQLVESGGGLVQAGGSLRLSCAASGFTFRYYTMGWYRQAPGKERELVARITTGGSTKYADSVKGRFTISRDNAKNTVYLQMNSLKPEDTAVYYCAARQYKWWFSQDGYDYWGQGTQVTVSS | high polyreactivity
QVQLVESGGGLVQAGGSLRLSSAASGIFSYYAIGWYRQAPGKERELVAAISSSGGSTYYADSVKGRFTISRDNAKNTVYLQMNSLKPEDTAVYYCAVSGGTSRRYYYWGLGTQVTVSS | high polyreactivity
QVQLVESGGGLVQAGGSLRLSCAASGRTFQYYAMGWYRQAPGKERELVAAISGIGTSTSYADSVKGRFTISRDNAKNTVYLQMNSLKPEDTAVYYCAARLLVPCSPWYTNYYWGQGTQVTVSS | low polyreactivity
QVQLVESGGGLVQAGGSLRLICAASGSTFATYSMGWYRQAPGKERELVAAITLRGGRTYYADSVKGRFTISRDNAKNTVYLQMNSLKPEDTAVYYCAAEYYYLSFGLTWWRGFDYWGQGTHVTVSS | high polyreactivity
QVQLVESGGVLVQAGGSLRLSCAASGRIFDIYAMGWYRQAPGKERELVAGITWRAGSTYYADSVKGRFTISRDNAKNTVYLQMNSLKPEDSAVYFCARDYSRHKGDYWGQGTQVTVSS | low polyreactivity
QVQLVESGGGLVQAGVSLRLSCAASGSIFVHYDMGWYRPAPGKERELVADIDYSGGSTYYADSVKGRFTISRDYAKNTVYLQMNSLKPEDTAVYDCAAERRRWGLDYYYWGQGTQVTVSS | high polyreactivity
QVQLVESGGGLVQAGGSLRLSCAASGFTFYYYAMGLYRQAPGKERELVAAITYSGGSTYYADSVKGRFTISRDNAKNTVYLQMNSLKPEDTAVYYCAAEAIPRLSWWYGVDYWGQGTQVTVSS | low polyreactivity
QVQLVESGGGLVQAGGSLRLSCAASGIIFAGNAMGWYRQAPGKERELLAVITSGGSTYYADSVKGRFTISRDNAKNTVFLQINSLIPEDTAVYYCNKVYYAYRVSLYSYGYWGQGTQVTVSS | high polyreactivity
QFQLVDSGGGLVQAGGSLRLRSAASGRTFYPYVMAWYRQAPGKEREIVAAISYTGCSTYYADSVKGRFTISRDNAKNTVYLQMNSLKPEDTAVYYCNRAKYYSGGYRYHVDYWGQGTQVTVSS | high polyreactivity
QVQLVESGGGLVQAGGSLRLSCAASGFIFGVNAMGWYRQAPGKERELVAAITSTGGRTYYADSVKGRFTISRDNAKNTVYLQMNSLKPEDTAVYYCNKRYRDQYGYDYWGQGTQVTVSS | high polyreactivity
QVQLVESGGGLVQAGGSLRLSCAASGSTFGLNPMGWYRQAPGKERELVAAISTSGGSTYYADSVKGRFTISRDNAKNTVYLQMNSLKPEDTAVYYCAAEVVAGYDYSQYYYWGQGTQVTVSS | low polyreactivity
QVHLVESGGCLVQAGGSLRLSSAASASIFYYNTMGWYIQAPGKERELVATNSSDGGTNYADSVKGRFTISRDNAKNTVYLQMNSLKPEDTAVYYCAAAVSPYSYWPGFDYWGQGTQVTVSS | low polyreactivity
QVQLLESGCGLVQAGGSLRLSCMASGSSLGDRMSWYRQAPGKEHELVATIYDGGITYYADSMKGRFTISRENAKNSVYLQMNSLRPEDTAVYYCGDSFEGYRYHVYCGQGTQVTVSS | low polyreactivity
QVQHVESGGGLVQAGGSLRLSCAASGYTFYIYPMGWYRQAPGKERELVATISSSGGGTYYADSVKGRFTISRDNAKNTVYLQMNSLKPEETAVYYCAADSWRYVAEGLWREYDYWGQRTQVTVSS | low polyreactivity
QVQLEESGGGLVQAGGSLRLSCAASGSTFSRYAMGWYRPAPGKEREFVAAISRRAGGTYYADSVKGRFTISRDNAKNTVYLQMNSLKPEDTAVYYCATVLPRDYIGRATYDYWGQGTQVTVSS | high polyreactivity

Sequence | polyreactivity (PSR sort gate)
QVQLIESGGGLVHAGGSLRLSCAASGSTYQANTMGWYSHAPGKERQLVAAISIRGANTYYADSVKGRFTISRDNAKNTVYIQMNSLKPEDTAVYDCATRVRKYSLRLDYWGQGTQVTVSS | high polyreactivity
QVQLVESGGGLVQAGGSLRLSCAASGSTLYPYAMGWYRQAPGKERELVAVITKSGGRTYYADSVKGRFTISRDNAKNTVYLQMNSLKPEDTAVYYCAAKSTYGRLGGDSWGQGTQVTVSS | high polyreactivity
QVQLVESGGGLVQAGGSLRLSCAASGRIFRGYTMGWYRQAPGKERELVAAIRSGSRTNYADSVKGRFTISRDNAKNTVYLQMNSLKPEDTAVYYCAADSGYGRPYYYWGQGTQVTVSS | high polyreactivity
QVQLVESGGGLVQAGGSLRLSCAASGSIFDHYAMGWYRQAPGKERELVAAIRTDGSTKYADSVKGRFTISRDNAKNTVYLQMNSLKPEDTAVYYCAATTGYTARWRNRYIYSYWGQGTEVTVSS | high polyreactivity
QVQLVESGGGLVQAGGSLRLSCAASGFTFFKYAMGWYRQAPGKERELVAAISSSGGSTYYADSVKGRFTISRDNAKNTVYLQMNSLKPEDTAVYYCNRPAAVYFKLVTAYDYWGQGTQVTVSS | high polyreactivity
QVQLVESGGGLVQAGGSLRLSCAASGSIFVFYARGWSRQAPGKERELVAAITSGGRTYYADSVKGRFTISRDNAKNTVYLQMNSLKPEDTAVYYCNAVRFYSIGLGQDDYWGQGTQVTVSS | low polyreactivity
QVQLVESGGGLVQAGGSLRLSCAASGIIFGRYAMGWYTPAPGKERELVATISYRGGRTYYADSVKGRFTISRDNAKNTVYLQMNSLKPEDTAVYYCAAPHFSYSGGTHDYWGQGTQVTVSS | high polyreactivity
QVQLVESGGGLVQAGGSLRLSCAASGSTINWNAMGWYRQAPGKERELVASINRGDSTYYADSVKGRFTISRDNAKNTVYLQMNSLKPEDTAVYYCAARRYYSLRTFLYCFSKYDYWGQGTQVTVSS | high polyreactivity
QVQLVESGGGLVQAGGSLRLSCAACGSTFWYYVMGWYRQAPGKERELVAAISTRGDSTYYADSVKGRFTISRDNAKNTVYLQMNSLKAEDTAVYYCAKSRQSSGRVRFDYWGQGTQVTVSS | low polyreactivity
QDQLVESGGGLVQAGASLRLSCAASGFIFSYYAMGWYRQAPGKERELVAAITWSGSSTYYADSVKGRFTISRDNAKNTVYLQMNSLKPEDTAVYYCPASSGGFRHYYYTYNYWGQGTQVTVSS | high polyreactivity
QVHLVESGGGLVQAGGSLRLSCAAYGIIFNSNAMGWYRQAPGKERELVAAISVSGGSTYYADSVKGRFTISRDNAKNTVYLQMNSLKPEDTAVYFCAARTGRGDRTRRYYYWGQGTKVTVSS | high polyreactivity
KVQLVESGGGLVQAGGSLRLSCAASGLNFGRYAMGWYRQAPGKERELVAAISSSGVRTYYADSVKGRFTISRHNAKNTVYLQMNSLKPADTAVYYCAAAYWSSREDTVIKRYYWGQGTQVTVSS | high polyreactivity
QVQLVESGGGLVQAGGSLRLSCAASGSIFYANVKGWSRQAPGKERELDATISISSSTNYADSVKGRFTISRDNAKNTVYLQMNSLKPEDTAVYYCNASFGHHYSYWVDTSYDYWGQGTQVTVSS | low polyreactivity
QVQLVESGGGLVQAGGSLRLSCAASGSTFYPYTMGWYRQAPGKERELFAAITSGGNTNYADSVKGRFTISRDNAKNTVYLQMNSLKPEDTAVYYCNAEPEGTTGNYFPYDYWGQGTQVTVSS | low polyreactivity
QVQLVESGGGLVQEGGSLRLSCAASGIIFYYNAMGWYRQAPGKERELVARITWRAGSTYYADSVKGRFTISRDNAKNTVYLQMNSLKPEDTAVYYCNADHDGLGYYYWGQGTQVTVSS | high polyreactivity
